Results from US10054602B2, “Conjugate of estradiol and applications thereof” (CHRIST UNIVERSITY, priority 2016, dated 2018).
Entries after “also recorded” stand apart in the source; their conditions may differ. Where two headings read alike, the source gives them in different places.

Assays:
[1] = system: MCF-7 cells; experiment: inhibition of nuclear entry of estrogen conjugated dye in MCF-7 cells; type: cell-based, Human
Protocol: The estrogenic activity is examined using human mammary carcinoma MCF-7 cells. The cells are cultured with various concentrations of Diethylstilbestrol (DES) and estrogen conjugated dye for more than 5 days and then the cells were counted.
A very clear distinction on non-specific binding is observed and the binding is only seen in the cytoplasm.

[2] = ICG as standard; cited from earlier work
[3] = optical properties of dye (absorption, emission, quantum yield); type: physicochemical; details: for absorption maxima (wavelength): solvent not stated; for Quantum yield φ: ICG as standard
Protocol: The increased fluorescence quantum yield of the hydrophilic derivatives reduces the risk of the forming fluorescence-quenched aggregation. […] Thus the conjugate can be used for tagging estradiol because of its ability to form monoderivatized activated precursors as it has a carboxylic group which can be tailored to attach to functional groups of biomoloecules like estradiol.
The excitation and emission peaks for the conjugate are recorded in the NIR region as 757 nm and 788 nm respectively. The potential of the compound in the application as contrast agents for fluorescence imaging modalities, where the fluorescence emission of the dye is expected to be detectable in high sensitivity above low tissue background is analysed on the breast cancer cell lines MCF-7/MDA-MB-231.

[4] = system: MCF-7 [ER+] cells; experiment: NIRF staining / confocal laser microscopy of MCF-7 cells; type: cell-based, Human; details: for cellular localisation / binding of fluorescence: MCF-7 (ER+), confocal microscopy, 1 μM
Protocol: (§1) Human breast cancer cell lines MCF-7 [ER+] and MDA-MB-231 [ER-] are obtained from National Centre for Cell science (NCCS (Pune)). The cells are cultured, revived and the experiments are carried out at Advanced Centre for Treatment, Research and Education in Cancer (ACTREC) of Tata Memorial Centre (Mumbai).
(§2) MCF-7 and MDA-MB-231 cells are cultured in DMEM/F12 medium without phenol red (ACTREC, Mumbai) supplemented with 10% fetal bovine serum. Cells in suspension (50 μl) are added to each well of a 96-well culture plate for a final concentration of 1×10^3 Cells/well and incubated for 24 h at 37° C. in carbon dioxide chamber.
The NIRFDC with initial concentration of 24.5 mg/2 ml of DMSO solution is added to each well, and the cultures further incubated for 2 h. The cells are treated at different concentration levels of 1:10, 1:50, 1:100, 1:500 and 1:1000 of DMSO. The cells were then re-suspended in 100 μl of 0.04N HCl/isopropanol solution.
Cell smears are prepared by rolling the swab across the top half of the well of a microscope slide. The opposite side of the swab is rolled over the bottom half of the well. There after the slide is allowed to air dry completely. Then the slide is fixed in chilled (2° to 8° C.) acetone for 10 minutes, which is further removed and allowed to air dry completely. Slides are stored at ≤−20° C. with desiccant. On completion, the cells are re-suspend to at least 400 μL in phosphate buffered saline and 200 μL is applied to each slide by cento-centrifugation at 800 rpm for 4 minutes [Br. J Cancer. 58:77-80, (1988)]. This procedure is repeated for fixing both the cell lines.
The smears are stained with the conjugate at different dilutions of 1:10, 1:50, 1:100, 1:500 and 1:1000 and incubated for an hour at about 25° C. Thereafter these cells are given 3 washes of phosphate buffered saline, mounted with DPX (Distrene Plasticyser Xylene) covered and imaged using the Olympus Confocal microscope.
MCF-7 cells maintained at 37° C. in a 5% CO2 atmosphere in phenol red-free minimal essential medium (MEM) containing 10% charcoal stripped calf serum and penicillin, streptomycin, glutamine, are incubated for 4 days in 24 multiwells (NUNC). After 4 days of culture, the medium is removed and the cells are incubated for 1 hour at 37° C. with […] at concentrations ranging from 0.3 nM to 1 nM. Medium is removed and the cells are washed twice with phosphate buffer saline (PBS). 250 μl of absolute ethanol is added to each well (exposition during 20 min).
The in-vitro studies are carried out using the inverted lens Olympus Fluo-View Confocal Microscope. The sample is excited at 754 nm and the emissions are observed using PMT having relatively higher quantum efficiency in the NIR-region.
(§3) These cells retained several characteristics of differentiated mammary epithelium including ability to process estradiol via Nuclear and cytoplasmic estrogen receptors and the capability of forming domes. MBA-MB-231 breast cancer cell lines are used as the control. […] The nuclear staining is pivotal towards early detection of cancer as 80% of the breast cancer reported are ER+ and could be detected by this characteristic feature. […]
In-vitro fluorescence signal of malignant cells bearing estrogen receptor positive with the control (cells without intracellular estrogen receptors) are studied. Fluorescence intensity generated by the NIRF Dye-Conjugate in particular to the nucleus and the entire cell is plotted as shown in the (FIG. 6 A, B). […]

[5] = tissue kinetics in tumor tissue after injecting; type: in vivo; details: for half-life: in tumor tissue, read-out: tissue-efflux half-life
[6] = system: MDA-MB-231 [ER-] cells; experiment: NIRF staining / confocal laser microscopy of MDA-MB-231 control cells; type: cell-based, Human; details: 1 μM
Protocol: as §1
as §2, with “chamber. […]” for “chamber.”
as §3, with “domes.” for “domes. MBA-MB-231 breast cancer cell lines are used as the control.”
The cell lines are not controlled by the estrogen and lack the estrogen activity in the nucleus. After additional incubation under conditions permitting membrane traffic and thus endocytosis, fast and thorough internalization of ligand-receptor complexes into an intracellular compartment could be detected. […]

[7] = partition coefficient studies; type: physicochemical
[8] = plasma protein binding; type: in vitro ADME
[9] = system: cell lines; experiment: toxic effect on the cell lines; type: cell-based; details: glucosammonium ion in place of sodium ion
[10] = molecular target: T1, Estrogen receptor (ER) in human breast cancer tissues (Homo sapiens, UniProt P03372); experiment: ER staining of breast carcinoma tissue sections; details: Non-invasive Ductal, Lobular, Adenocarcinoma and Medullary Carcinoma
T1 construct: from tissue; host or cells: human breast carcinoma tumor tissue, formalin-fixed paraffin sections
T1 sequence (P03372 whole entry): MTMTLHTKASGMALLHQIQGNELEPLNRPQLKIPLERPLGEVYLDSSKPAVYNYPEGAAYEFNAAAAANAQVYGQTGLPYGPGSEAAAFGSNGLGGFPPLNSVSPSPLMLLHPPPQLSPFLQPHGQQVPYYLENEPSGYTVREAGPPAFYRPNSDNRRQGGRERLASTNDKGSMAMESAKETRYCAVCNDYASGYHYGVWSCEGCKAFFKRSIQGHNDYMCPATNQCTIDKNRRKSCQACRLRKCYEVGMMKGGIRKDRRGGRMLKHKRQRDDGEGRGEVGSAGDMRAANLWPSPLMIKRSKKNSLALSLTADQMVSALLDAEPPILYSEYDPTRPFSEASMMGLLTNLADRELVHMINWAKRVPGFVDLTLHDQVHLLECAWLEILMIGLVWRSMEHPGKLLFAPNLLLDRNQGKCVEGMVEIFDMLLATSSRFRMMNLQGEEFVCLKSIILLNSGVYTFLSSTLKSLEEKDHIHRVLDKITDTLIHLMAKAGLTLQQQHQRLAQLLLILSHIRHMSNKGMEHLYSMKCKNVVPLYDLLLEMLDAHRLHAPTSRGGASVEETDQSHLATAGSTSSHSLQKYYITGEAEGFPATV
Protocol: The avidin-biotin-peroxidase complex method is used for the paraffin sections fixed in cold buffered formalin and the results are compared with the ER content in the respective tumor tissue. The specific staining for ER is located exclusively in the nuclei of cancer cells in paraffin sections.
The tumor pieces are fixed in buffered formalin (0.1 M sodium phosphate, pH 7.4/10% formalin) for 24 hr at […]. After being rinsed overnight at […]. in 0.1 M sodium phosphate (pH 7.4), they are dehydrated with graded ethanol and embedded in paraffin. Paraffin sections (4 μm) are cut, deparaffinized with xylene, and rinsed thoroughly with absolute ethanol. Then they are soaked in absolute methanol containing 0.3% H2O2 for 30 min at 25° C. to decrease the endogenous peroxidase activity. The sections were washed three times with 50 mM Tris-HCl, pH 7.6/137 mM NaCl (Tris/NaCl) and were incubated with serum (10% in Tris/NaCl) for 30 min at 25° C. so as to reduce the nonspecific staining. Excess serum is removed by blotting. I˜g/ml) or with normal rat IgG (10 A·g/ml) for 30 min at 37° C. After being washed with Tris/NaCl. […]

## CC/C(=C(/CC)c1ccc(O)cc1)c1ccc(O)cc1 [Diethylstilbestrol]
[1]
  blocking of entry of the estradiol conjugate into the nucleus: inhibited the entry of the estradiol into the nucleus
[1]; listed as DES
  blocking of entry of the estradiol conjugate into the nucleus: blocking operation of the estrogen conjugated dye from entering the nucleus

## CC1(C)C(/C=C/C=C/C=C/C=C2\N(CCCCS(=O)(=O)O)c3ccc4ccccc4c3C2(C)C)=[N+](CCCCS(=O)(=O)[O-])c2ccc3ccccc3c21 [ICG, Indocyanine Green, reference compound]
[2]
  quantum yield φ of the standard: 0.13
[3]
  absorption maxima (wavelength): 780
[4]
  cellular localisation / binding of fluorescence: only stains the cells without entering the nucleus of the cell
[5]; other: injection (type not specified)
  half-life: < 0.167 h

## CC/C(=C(\c1ccccc1)c1ccc(OCCN(C)C)cc1)c1ccccc1 [Tamoxifen]
[1]
  blocking of entry of the estradiol conjugate into the nucleus: inhibited the entry of the estradiol into the nucleus; also recorded: blocking operation of the estrogen conjugated dye entering the nucleus

## CC1(C)C(/C=C/C=C/C=C/C=C2\N(CCCCS(=O)(=O)O)c3ccc(C(=O)Oc4ccc5c(c4)CCC4C5CC[C@@]5(C)C4CC[C@@H]5O)cc3C2(C)C)=[N+](CCCCS(=O)(=O)[O-])c2ccc(C(=O)Oc3ccc4c(c3)CCC3C4CC[C@@]4(C)C3CC[C@@H]4O)cc21 (stereo partly drawn) [conjugate]
[6]
  cellular localisation / binding of fluorescence: only the plasma membrane staining
[6]; listed as NIRFDC
  cellular localisation / binding of fluorescence: poor binding of conjugate into the nucleus
[7]
  partition coefficient: less than 0.005
[8]
  fraction unbound: > 0.5
[9]
  toxic effect on the cell lines: reduce the toxic effect on the cell lines
[3]
  Stokes' shift of fluorescence maximum: 38 nm
  absorption maxima (wavelength): 757
[3]; DMSO
  Strokes' shift: 30
  λmax absorption: 757 nm
  λmax emission: 787 nm
  Quantum yield φ: 0.114
[3]; NIR region
  emission peak: 788 nm
  excitation peak: 757 nm
[3]; PBS
  Strokes' shift: 33
  λmax absorption: 755 nm
  λmax emission: 788 nm
  Quantum yield φ: 0.110
[3]; physiological environment
  enhancement of fluorescence quantum yields with respect to ICG: 7-15%
[4]; 24 h
  signal intensity of MCF-7 cells compared to MDA-MB-231: ~2.4 fold
[4]
  cellular localisation / binding of fluorescence: specific high affinity binding sites of estrogen molecule on to the nucleus and membrane
[4]; listed as NIRFD-conjugate
  cellular localisation / binding of fluorescence: majority of the receptor-associated fluorescence co-localized at the Nucleus and a minority in the plasma membrane
[4]; listed as NIRFDC
  cellular localisation / binding of fluorescence: very clear localization of conjugated dye in the nucleus; also recorded: significant amount of binding is seen in the nucleus
[10]
  ER staining of carcinoma tissue: ER staining which are confined to the nuclei
[5]; in vivo
  initial tissue absorption coefficient compared to ICG: two-fold higher
[5]; other: injection (kind of injection not stated)
  half-life: 1.22 h
[5]; up to one hour after injecting
  tumor-to-tissue concentration gradient: elevated tumor-to-tissue concentration gradient for up to one hour after injecting
